Among the data in publication PMC11315126 are stoichiometry N values, retold here.

In this assay the target is GST-TrbBWT (not stated | E. coli F plasmid) (UniProt P18035). As to the kind of experiment: SEC-MALS; SEC-MALS-SAXS; Superdex 200 10/300 Increase, 0.6 mL/min, 5.5 mg/mL loaded, 20 mM HEPES pH 7.0, 100 mM NaCl, 5% glycerol, 0.05% NP40, 20 °C. On the technique in general: Size exclusion chromatography separates by hydrodynamic size, large species first.

One may read the stoichiometry N as a count of units in the complex or per binding partner. In turn, GST-TrbBWT (from UniProt P18035 23-181) had a stoichiometry N of 2.
